Laboratory results reported in doi:10.1101/434902 (bioRxiv, 2018).
Positions count from the first letter of the chain named. In names and notes the source's numbering stands. Where two headings read alike, the source gives them in different places. Values belong to the binder of their own block, whether it stands above or below them.

Experiments:
Test in all cases: cryo-EM structure
[1] = target: the molecule itself
[2] = target: bovine calmodulin (bovine, UniProt P62157 1-149)
[3] = target: the molecule itself; remark: listed apart in the source

binding result [2]: binds
B1: rabbit TRPV5 full length channel (1-730) (natural protein)
chain: MGACPPKAKGPWAQLQKLLISWPVGEQDWEQYRDRVNMLQQERIRDSPLLQAAKENDLRLLKILLLNQSCDFQQRGAVGETALHVAALYDNLEAATLLMEAAPELAKEPALCEPFVGQTALHIAVMNQNLNLVRALLARGASVSARATGAAFRRSPHNLIYYGEHPLSFAACVGSEEIVRLLIEHGADIRAQDSLGNTVLHILILQPNKTFACQMYNLLLSYDEHSDHLQSLELVPNHQGLTPFKLAGVEGNTVMFQHLMQKRKHVQWTCGPLTSTLYDLTEIDSWGEELSFLELVVSSKKREARQILEQTPVKELVSFKWKKYGRPYFCVLASLYILYMICFTTCCIYRPLKLRDDNRTDPRDITILQQKLLQEAYVTHQDNIRLVGELVTVTGAVIILLLEIPDIFRVGASRYFGQTILGGPFHVIIITYASLVLLTMVMRLTNMNGEVVPLSFALVLGWCSVMYFARGFQMLGPFTIMIQKMIFGDLMRFCWLMAVVILGFASAFHITFQTEDPNNLGEFSDYPTALFSTFELFLTIIDGPANYSVDLPFMYCITYAAFAIIATLLMLNLFIAMMGDTHWRVAQERDELWRAQVVATTVMLERKMPRFLWPRSGICGYEYGLGDRWFLRVENHHDQNPLRVLRYVEAFKCSDKEDGQEQLSEKRPSTVESGMLSRASVAFQTPSLSRTTSQSSNSHRGWEILRRNTLGHLNLGLDLGEGDGEEVYHF
stoichiometry N [1]: 4

B2: full length TRPV5 with a W583A point mutation (natural protein)
chain: B1 chain with W583A
stoichiometry N [3]: 4

B3: rabbit TRPV5 with a C-terminal truncation (1-660) (domain or fragment)
chain: MGACPPKAKGPWAQLQKLLISWPVGEQDWEQYRDRVNMLQQERIRDSPLLQAAKENDLRLLKILLLNQSCDFQQRGAVGETALHVAALYDNLEAATLLMEAAPELAKEPALCEPFVGQTALHIAVMNQNLNLVRALLARGASVSARATGAAFRRSPHNLIYYGEHPLSFAACVGSEEIVRLLIEHGADIRAQDSLGNTVLHILILQPNKTFACQMYNLLLSYDEHSDHLQSLELVPNHQGLTPFKLAGVEGNTVMFQHLMQKRKHVQWTCGPLTSTLYDLTEIDSWGEELSFLELVVSSKKREARQILEQTPVKELVSFKWKKYGRPYFCVLASLYILYMICFTTCCIYRPLKLRDDNRTDPRDITILQQKLLQEAYVTHQDNIRLVGELVTVTGAVIILLLEIPDIFRVGASRYFGQTILGGPFHVIIITYASLVLLTMVMRLTNMNGEVVPLSFALVLGWCSVMYFARGFQMLGPFTIMIQKMIFGDLMRFCWLMAVVILGFASAFHITFQTEDPNNLGEFSDYPTALFSTFELFLTIIDGPANYSVDLPFMYCITYAAFAIIATLLMLNLFIAMMGDTHWRVAQERDELWRAQVVATTVMLERKMPRFLWPRSGICGYEYGLGDRWFLRVENHHDQNPLRVLRYVEAFKCSDKEDGQ
stoichiometry N [3]: 4
